Source: US20220204643A1 (published 2022)
Values belong to the binder of their own block, whether it stands above or below them.

Assays:
[1] = target: T1, checkpoint kinase 2, transcript variant 3 (human)
T1 construct: HuProt array protein, full-length recombinant from yeast; also called CHEK2
T1 chain: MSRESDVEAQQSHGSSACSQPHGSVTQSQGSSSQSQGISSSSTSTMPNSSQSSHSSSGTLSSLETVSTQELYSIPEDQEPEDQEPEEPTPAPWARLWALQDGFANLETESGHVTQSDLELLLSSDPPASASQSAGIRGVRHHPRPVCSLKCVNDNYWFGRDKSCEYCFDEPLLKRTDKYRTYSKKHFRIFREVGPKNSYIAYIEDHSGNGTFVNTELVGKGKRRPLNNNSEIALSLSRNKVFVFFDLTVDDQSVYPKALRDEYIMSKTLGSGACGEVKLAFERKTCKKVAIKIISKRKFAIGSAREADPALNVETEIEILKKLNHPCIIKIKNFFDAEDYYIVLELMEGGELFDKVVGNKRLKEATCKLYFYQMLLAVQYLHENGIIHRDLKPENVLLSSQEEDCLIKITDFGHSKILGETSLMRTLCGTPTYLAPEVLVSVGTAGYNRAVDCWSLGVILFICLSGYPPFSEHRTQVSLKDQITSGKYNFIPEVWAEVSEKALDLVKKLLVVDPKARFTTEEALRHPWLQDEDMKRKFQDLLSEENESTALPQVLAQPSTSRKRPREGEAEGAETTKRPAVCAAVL

[2] = target: T2, S100 calcium binding protein B (human, UniProt P04271 2-92)
T2 construct: HuProt array protein, full-length recombinant from yeast; also called S100B
T2 sequence: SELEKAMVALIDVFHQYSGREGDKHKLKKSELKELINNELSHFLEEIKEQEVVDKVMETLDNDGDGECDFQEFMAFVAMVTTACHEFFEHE

[3] = target: T3, proliferating cell nuclear antigen, transcript variant 1 (human, UniProt P12004 1-261)
T3 construct: HuProt array protein, full-length recombinant from yeast; also called PCNA

[4] = target: aldo-keto reductase family 1 member B, transcript variant 1 (human, UniProt P15121 2-316)
[5] = target: T4, aarF domain containing kinase 5 (human, UniProt Q3MIX3 1-580)
T4 construct: HuProt array protein, full-length recombinant from yeast; also called ADCK5

[6] = target: T5, dynein axonemal assembly factor 3, transcript variant 3 (human, UniProt Q8N9W5 1-541)
T5 construct: HuProt array protein, full-length recombinant from yeast; also called DNAAF3
T5 sequence: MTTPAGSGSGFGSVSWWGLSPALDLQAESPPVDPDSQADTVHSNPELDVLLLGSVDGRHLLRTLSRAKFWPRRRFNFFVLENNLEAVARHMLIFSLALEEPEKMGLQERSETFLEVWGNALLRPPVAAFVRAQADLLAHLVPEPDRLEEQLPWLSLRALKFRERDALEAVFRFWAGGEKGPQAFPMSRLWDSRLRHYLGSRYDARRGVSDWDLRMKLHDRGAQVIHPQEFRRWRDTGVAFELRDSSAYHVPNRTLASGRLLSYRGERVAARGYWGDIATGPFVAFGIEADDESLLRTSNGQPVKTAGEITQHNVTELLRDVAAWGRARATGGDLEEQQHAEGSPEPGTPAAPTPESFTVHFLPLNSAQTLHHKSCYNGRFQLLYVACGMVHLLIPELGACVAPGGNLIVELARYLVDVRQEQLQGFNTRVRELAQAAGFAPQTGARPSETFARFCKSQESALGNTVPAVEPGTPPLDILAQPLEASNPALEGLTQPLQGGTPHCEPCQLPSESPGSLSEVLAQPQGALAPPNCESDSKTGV

[7] = target: T6, CDP-diacylglycerol synthase 1 (human, UniProt Q92903 1-461)
T6 construct: HuProt array protein, full-length recombinant from yeast; also called CDS1
T6 sequence: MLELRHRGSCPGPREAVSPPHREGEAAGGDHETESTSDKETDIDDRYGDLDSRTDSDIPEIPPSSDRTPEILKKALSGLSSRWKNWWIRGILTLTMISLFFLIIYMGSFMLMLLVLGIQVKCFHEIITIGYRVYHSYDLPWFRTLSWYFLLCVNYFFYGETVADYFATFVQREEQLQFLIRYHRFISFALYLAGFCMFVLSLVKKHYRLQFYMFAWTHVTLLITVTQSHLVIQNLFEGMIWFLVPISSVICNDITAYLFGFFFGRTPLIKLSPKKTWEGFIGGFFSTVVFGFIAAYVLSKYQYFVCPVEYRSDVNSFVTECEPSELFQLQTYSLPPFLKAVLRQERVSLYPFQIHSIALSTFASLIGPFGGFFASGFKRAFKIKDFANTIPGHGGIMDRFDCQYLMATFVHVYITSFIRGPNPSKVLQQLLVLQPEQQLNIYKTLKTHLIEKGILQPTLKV

[8] = target: T7, ankyrin repeat domain 53, transcript variant 2 (human)
T7 construct: HuProt array protein, full-length recombinant from yeast; also called ANKRD53
T7 chain: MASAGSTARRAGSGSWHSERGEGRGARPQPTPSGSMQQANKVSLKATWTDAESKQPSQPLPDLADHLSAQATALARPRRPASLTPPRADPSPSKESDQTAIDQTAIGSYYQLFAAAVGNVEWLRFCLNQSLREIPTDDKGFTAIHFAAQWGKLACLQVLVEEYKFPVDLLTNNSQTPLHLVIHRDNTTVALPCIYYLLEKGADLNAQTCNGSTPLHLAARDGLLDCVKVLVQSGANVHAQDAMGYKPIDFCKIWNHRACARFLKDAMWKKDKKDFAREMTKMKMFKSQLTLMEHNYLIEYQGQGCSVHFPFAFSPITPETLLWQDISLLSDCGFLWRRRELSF

DEAD-box helicase 18 = target: T8, DEAD-box helicase 18 (human, UniProt Q9NVP1 1-670); assay: protein array
T8 construct: on protein array; also called DDX18
T8 sequence: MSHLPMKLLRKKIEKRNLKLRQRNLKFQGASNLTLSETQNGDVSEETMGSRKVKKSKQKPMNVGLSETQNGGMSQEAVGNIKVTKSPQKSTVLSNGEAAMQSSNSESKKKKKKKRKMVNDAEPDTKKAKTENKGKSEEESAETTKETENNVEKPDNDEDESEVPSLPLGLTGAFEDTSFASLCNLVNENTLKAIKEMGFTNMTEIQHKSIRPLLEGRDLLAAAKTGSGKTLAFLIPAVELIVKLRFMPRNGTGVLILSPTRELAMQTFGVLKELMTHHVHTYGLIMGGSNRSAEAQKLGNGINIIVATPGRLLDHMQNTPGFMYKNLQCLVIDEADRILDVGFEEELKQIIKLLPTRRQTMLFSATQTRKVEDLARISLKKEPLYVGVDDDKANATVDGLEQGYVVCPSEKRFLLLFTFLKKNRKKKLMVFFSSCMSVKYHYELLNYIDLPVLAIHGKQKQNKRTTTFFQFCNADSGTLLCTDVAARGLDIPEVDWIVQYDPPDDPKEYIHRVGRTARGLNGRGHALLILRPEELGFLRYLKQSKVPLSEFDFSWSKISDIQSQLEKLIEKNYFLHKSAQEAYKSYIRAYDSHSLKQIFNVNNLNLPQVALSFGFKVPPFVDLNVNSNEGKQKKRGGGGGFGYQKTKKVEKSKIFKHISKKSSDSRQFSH

[9] = target: T9, geminin DNA replication inhibitor, transcript variant 1 (human, UniProt O75496 1-209); assay: protein array
T9 construct: on protein array; also called GMNN
T9 sequence: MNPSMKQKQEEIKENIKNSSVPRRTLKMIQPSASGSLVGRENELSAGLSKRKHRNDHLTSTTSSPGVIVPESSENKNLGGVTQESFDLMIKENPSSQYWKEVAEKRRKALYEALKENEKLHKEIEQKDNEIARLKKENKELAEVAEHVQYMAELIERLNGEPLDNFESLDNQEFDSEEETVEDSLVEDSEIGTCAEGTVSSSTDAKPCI

[10] = target: T10, syntaxin 1A, transcript variant 1 (human, UniProt Q16623 1-288); assay: protein array
T10 construct: on protein array; also called STX1A
T10 sequence (Q16623 whole entry, change not shown): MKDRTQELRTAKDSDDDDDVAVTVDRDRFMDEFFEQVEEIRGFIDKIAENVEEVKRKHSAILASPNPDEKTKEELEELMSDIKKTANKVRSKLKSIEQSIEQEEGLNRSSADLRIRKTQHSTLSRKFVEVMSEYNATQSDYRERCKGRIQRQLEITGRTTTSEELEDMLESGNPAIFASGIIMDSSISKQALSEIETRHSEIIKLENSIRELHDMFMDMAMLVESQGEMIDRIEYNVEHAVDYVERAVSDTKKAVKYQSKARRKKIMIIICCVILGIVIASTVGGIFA

T4 sequence (Q3MIX3 other isoform, or with tags, fused parts or gaps limits assumed): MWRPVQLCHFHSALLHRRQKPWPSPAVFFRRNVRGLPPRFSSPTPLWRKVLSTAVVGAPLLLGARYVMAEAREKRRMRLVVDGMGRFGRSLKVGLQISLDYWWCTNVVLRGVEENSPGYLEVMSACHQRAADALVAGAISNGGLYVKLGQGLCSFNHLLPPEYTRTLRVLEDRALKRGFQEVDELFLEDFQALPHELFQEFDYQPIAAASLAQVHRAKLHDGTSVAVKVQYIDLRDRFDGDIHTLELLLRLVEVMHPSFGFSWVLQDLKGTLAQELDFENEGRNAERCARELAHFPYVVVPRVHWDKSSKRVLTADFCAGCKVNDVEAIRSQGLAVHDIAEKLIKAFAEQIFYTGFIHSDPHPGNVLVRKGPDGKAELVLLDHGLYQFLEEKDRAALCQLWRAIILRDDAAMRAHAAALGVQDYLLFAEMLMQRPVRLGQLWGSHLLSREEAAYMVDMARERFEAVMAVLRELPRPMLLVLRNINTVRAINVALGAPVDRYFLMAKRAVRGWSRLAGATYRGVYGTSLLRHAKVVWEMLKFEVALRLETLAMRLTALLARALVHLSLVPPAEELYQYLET
T3 sequence (P12004 whole entry, change not shown): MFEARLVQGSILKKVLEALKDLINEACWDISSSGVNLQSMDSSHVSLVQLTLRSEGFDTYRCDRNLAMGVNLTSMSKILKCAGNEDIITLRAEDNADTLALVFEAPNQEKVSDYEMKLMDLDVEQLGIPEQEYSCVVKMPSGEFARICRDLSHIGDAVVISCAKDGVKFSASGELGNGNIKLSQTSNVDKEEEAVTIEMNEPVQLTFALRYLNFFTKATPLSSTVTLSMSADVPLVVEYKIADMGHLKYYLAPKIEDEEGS

binding result [1]: binds
B1: TKIC1013 (antibody, V domains shown)
VH: EVQLVESGGGLVQPGGSLRLSCAASGFTFNNYWMHWVRQAPGKGLVWVSRISSDGSTTASADSVKGRFTISRDNAKNTLFLQMNSLRAEDTAVYYCAREGAPDDYGDSGTAFDIWGQGTTVTVSS
VL: DIQLTQSPSFLSASVGDRVTITCRASQDISSFLAWYQQKPGKAPDLLIYAASTLQSGVPSRFSGSGSGTEFTLTISSLQPEDFAAYYCQHLTSFPYTFGQGTKLEIKR
notes: detected with anti-human IgG Fc

binding result [2]: binds
B2: TKIC1012 (antibody, V domains shown)
VH: VVQLVESGGGLVQPGGSLRLSCAASGFSFSTYWMSWVRQAPGKGLEWVANIKQDGSEKHYVDSVKGRFTISRDNAKNSLYLQMNSLRAEDTAMYYCARRAYSFDYWGQGTLVTVSS
VL: DIQMTQSPSTLSASVGDKVTITCRASQSVGSWLAWYQQKPGKAPKLLISVASSLESGVPSRFSGSGSGTEFTLTVSSLQPDDFATYYCQQYNSYSWTFGQGTKVELKR
notes: as for B1

binding result [3]: binds
B3: TKIC1007 (antibody, V domains shown)
VH: GVDLVESGGGLVKPGGSLRLSCAASGFSFSRYNINWVRQAPGKGLEWVSSISSTSNYIYYADSVKGRFTISRDNAKNSLYLQMNSLRAEDTAVYYCARAMGGYTYYLDDWGQGTLVTVSS
VL: QSALTQPASVSGSPGQSITISCTGTSSDVGLYNFVSWYQQHPGKAPKLMIFDVNNRPSGVSNRFSGSKSDNTASLTISGLQAEDEADYYCSSYSRTTTLVFGGGTKVTVLG
notes: as for B1

binding result [4]: binds
B4: TKIC1006 (antibody, V domains shown)
VH: QVQLVQSGAEVKKPGSSVKVSCKTSGGTFSSYTISWVRQAPGQGPEWMGRIIPILNITNYAQKFQGRVTITADKSTSTTYMEMGSLRSEDTAVYFCARSFYGSGLQWGQGTLVTVSS
VL: EIVLTQSPGTLSLSPGERATLSCRASQSVSSSYLVWYQQKAGQAPRLLIYGASSRATGISDRFSGSGSGTDFTLTISRLEPEDFAVYYCQHFRSSPPTYTFGQGTKLEIKR
notes: as for B1

binding result [5]: binds
B5: TKIC1002 (antibody, V domains shown)
VH: PVQLQESGPGLVKPSETLSLTCTVSGGSISSYYWSWIRQPPGKGLEWIGYLFYSGSTNYNPSLKSRVTISVDTSKNQFSLKLGSVTAADTAVYYCARHRIFGLDVWGQGTTVTVSS
VL: EIVLTQSPGTLSLSLGERATLSCRASQSVSGSHLAWYQQKPGQAPRLLIYDASSRATGIPDRFSGSGSGTEFTLTISRLEPEDFAVYYCQQYGSSPLWFGQGTKVEIK
notes: as for B1

binding result [6]: binds
binding result [7]: binds
B6: THNS1014 (antibody, V domains shown)
VH: HVQLLQSGPGLVKPSQTLSLTCAISGDSVSSTSGAWNWIRQSPSRGLEWLGRTYYRSQWMNDYAESVRSRITINPDTSKNQFSLQLKSVTPEDTAVYYCTRGWAFTSSDWGQGTQVTVSS
VL: EIVLTQSPGTLSLSPGERATLSCRASQSFDGKSLAWYQQKPGQTPRLLVYGASSRATGIPDRFGGSGSGTDFTLTISRLESEDFAVYFCQQYAYVPITFGQGTRLERKR
notes: as for B1

binding result [8]: binds
B7: TKIC1019 (antibody, V domains shown)
VH: QLQLQESGPGLVKPSETLSLTCTVSDVSIISSFYYWGWIRQPPGKGLEWIGSVYYSGSTSYNPSLKSRVTISADTSKAHFSLNLRSVTAADTAVYYCVSRGPLGGAAAGPDYWGQGALVIVSS
VL: VSSELTQDPAVSVALGQTVRITCQGDSLRSYYATWYQQKPGQAPLLVIFDKDKRPSGIPDRFSGSSSGNTASLTITGAQPEDEAVYYCNSRDSSAHDHLLFGGGTTLTVLG
notes: as for B1

binding result (DEAD-box helicase 18): binds
binding result [9]: binds
binding result [10]: binds
B8: TBRE1027 (antibody, V domains shown)
VH: EVQLLESGGGLVQPGGSLRLSCAASGFTFSSYAMSWVRQAPGKGLEWVSTISGSGHSTYYADSVKGRFTISRDNSKNTLYLQMNSLRAEDTAVYYCAKSTLGGGFDFWGQGTLVTVSS
VL: DIQMTQSPFSLSASVGDRVTITCRASQSISSYLNWYQQKPGKAPKLLIYAASSLQSGVPSRFSGSGSGTDFTLTISSLQPEDFATYYCHQSYSTSLTFGGGTKVEIKR
notes: VH/VL only
